Test results: publication PMC5651801

Molecular target: 4-HIL dehydrogenase (HILDH) from Bacillus thuringiensis 2e2, wild type (Bacillus thuringiensis 2e2)
Experiment: crystal structure; HILDH with 10 mM NADH, sitting-drop vapor diffusion at 20 °C, 30% PEG 400, 0.1 M acetate pH 4.5, 0.2 M calcium acetate; 2.20 Å

4-HIL dehydrogenase (HILDH) from Bacillus thuringiensis 2e2, wild type (enzyme)
stoichiometry N: 4
